The values below come from publication doi:10.1101/2021.09.06.459192 (bioRxiv, 2021).

For this assay, the target named is Rrp5 full length, recombinant (Rrp5_FL) (S. cerevisiae, UniProt Q05022 1-1729). Kind of assay: pull-down.
Rrp5 full length, recombinant (Rrp5_FL), sequence (Q05022 whole entry): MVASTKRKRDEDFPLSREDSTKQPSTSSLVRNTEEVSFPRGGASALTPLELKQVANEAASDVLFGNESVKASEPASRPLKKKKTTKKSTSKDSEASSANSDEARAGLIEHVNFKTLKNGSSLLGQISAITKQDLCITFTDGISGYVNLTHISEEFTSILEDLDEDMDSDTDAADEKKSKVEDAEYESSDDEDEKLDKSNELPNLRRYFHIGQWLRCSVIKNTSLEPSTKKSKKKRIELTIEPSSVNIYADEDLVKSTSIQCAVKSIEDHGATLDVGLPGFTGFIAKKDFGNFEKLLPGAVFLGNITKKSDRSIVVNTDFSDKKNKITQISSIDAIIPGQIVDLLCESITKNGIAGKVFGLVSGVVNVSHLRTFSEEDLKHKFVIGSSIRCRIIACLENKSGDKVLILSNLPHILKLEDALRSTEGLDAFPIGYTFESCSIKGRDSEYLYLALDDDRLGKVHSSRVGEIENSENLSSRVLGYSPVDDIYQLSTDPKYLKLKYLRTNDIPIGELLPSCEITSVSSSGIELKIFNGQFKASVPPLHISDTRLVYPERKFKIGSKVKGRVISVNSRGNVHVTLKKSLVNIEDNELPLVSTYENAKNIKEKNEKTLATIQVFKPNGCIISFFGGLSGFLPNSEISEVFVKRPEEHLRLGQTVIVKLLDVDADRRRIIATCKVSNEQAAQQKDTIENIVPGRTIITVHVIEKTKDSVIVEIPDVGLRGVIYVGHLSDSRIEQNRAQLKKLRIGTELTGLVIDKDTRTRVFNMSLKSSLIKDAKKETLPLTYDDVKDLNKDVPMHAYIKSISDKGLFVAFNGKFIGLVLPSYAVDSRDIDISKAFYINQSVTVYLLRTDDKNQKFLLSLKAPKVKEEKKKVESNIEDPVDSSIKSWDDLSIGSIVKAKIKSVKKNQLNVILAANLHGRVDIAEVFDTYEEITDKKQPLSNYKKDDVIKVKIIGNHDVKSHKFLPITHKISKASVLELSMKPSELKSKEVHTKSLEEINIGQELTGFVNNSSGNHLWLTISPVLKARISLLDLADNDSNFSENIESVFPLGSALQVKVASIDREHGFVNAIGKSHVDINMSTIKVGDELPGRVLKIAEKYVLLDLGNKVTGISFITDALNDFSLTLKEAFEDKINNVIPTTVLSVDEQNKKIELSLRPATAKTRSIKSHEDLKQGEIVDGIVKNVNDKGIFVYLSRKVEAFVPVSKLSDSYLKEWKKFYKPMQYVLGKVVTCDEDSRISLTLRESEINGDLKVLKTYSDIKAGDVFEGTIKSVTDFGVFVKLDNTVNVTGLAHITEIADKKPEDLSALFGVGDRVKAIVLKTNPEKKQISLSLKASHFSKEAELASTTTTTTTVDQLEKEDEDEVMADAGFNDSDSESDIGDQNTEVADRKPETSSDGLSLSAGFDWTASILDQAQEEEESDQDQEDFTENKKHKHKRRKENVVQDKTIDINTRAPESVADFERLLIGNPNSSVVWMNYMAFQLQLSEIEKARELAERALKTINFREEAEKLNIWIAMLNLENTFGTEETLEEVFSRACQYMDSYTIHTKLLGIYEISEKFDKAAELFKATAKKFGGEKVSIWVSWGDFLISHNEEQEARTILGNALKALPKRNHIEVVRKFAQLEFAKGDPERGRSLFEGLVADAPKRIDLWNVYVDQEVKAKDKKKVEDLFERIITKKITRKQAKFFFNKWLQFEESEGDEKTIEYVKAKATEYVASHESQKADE

B1: MBP-Krr1, recombinant (natural protein, S. cerevisiae, UniProt P25586 1-316, looked up)
chain: MVSTHNRDKPWDTDDIDKWKIEEFKEEDNASGQPFAEESSFMTLFPKYRESYLKTIWNDVTRALDKHNIACVLDLVEGSMTVKTTRKTYDPAIILKARDLIKLLARSVPFPQAVKILQDDMACDVIKIGNFVTNKERFVKRRQRLVGPNGNTLKALELLTKCYILVQGNTVSAMGPFKGLKEVRRVVEDCMKNIHPIYHIKELMIKRELAKRPELANEDWSRFLPMFKKRNVARKKPKKIRNVEKKVYTPFPPAQLPRKVDLEIESGEYFLSKREKQMKKLNEQKEKQMEREIERQEERAKDFIAPEEEAYKPNQN
Consider B1, for which the binding result is “binds”.

B2: MBP-Rrp36, recombinant (natural protein, S. cerevisiae, UniProt Q12481 1-300, looked up)
chain: MSYYFKNLKPDLNSDVEEDDGNLLESIMANKSKREIDEQESSDDELKTLSFGSLKKAETVIDEEDFKDTKPVHKKPITTTYREESFDEDEDSEDQSDEDAGFFEEDSEDETHHGQKVPKKKSKHAPVEQSSKKRVPRVRNIPGLEIPRNKRSNLYQDIRFDKSTGKALDSSIIRKRYQFLDEYREKEIDELQKLLQERKFLSKIDQGEREEMEQRLKSMKSRLQSMKNKDLEREILKEYENDMNKNNNTRYHLKKSEKRKVVQKWKFDHMKAKQREKVMERKRKKRLGKEFKQFEFHNRR
On to B2, for which the binding result was “binds”.
